Experimental data taken from PMC12520249 (Nature, 2025).

Target: the molecule itself
Assay: cryo-EM structure

B1: hGluD2(ΔATD), human GluD2 with the amino-terminal domain deleted (receptor, UniProt O43424-1 24-1007, looked up)
chain: DSIDKKLENNMRGVVLRVVTVLEEPFVMVSENVLGKPKKYQGFSIDVLDALSNYLGFNYEIYVAPDHKYGSPQEDGTWNGLVGELVFKRADIGISALTITPDRENVVDFTTRYMDYSVGVLLRRAEKTVDMFACLAPFDLSLWACIAGTVLLVGLLVYLLNWLNPPRLQMGSMTSTTLYNSMWFVYGSFVQQGGEVPYTTLATRMMMGAWWLFALIVISSYTANLAAFLTITRIESSIQSLQDLSKQTEIPYGTVLDSAVYEHVRMKGLNPFERDSMYSQMWRMINRSNGSENNVLESQAGIQKVKYGNYAFVWDAAVLEYVAINDPDCSFYTIGNTVADRGYGIALQHGSPYRDVFSQRILELQQNGDMDILKHKWWPKNGQCDLYSSVDTKQKGGALDIKSFAGVFCILAAGIVLSCFIAMLETWWNKRKGSRVPSKEDDKEIDLEHLHRRVNSLCTDDDSPHKQFSTSSIDLTPLDIDTLPTRQALEQISDFRNTHITTTTFIPEQIQTLSRTLSAKAASGFTFGNVPEHRTGPFRHRAPNGGFFRSPIKTMSSIPYQPTPTLGLNLGNDPDRGTSI
binding result: binds

B2: hGluD2(R710W), human GluD2 with the cerebellar ataxia mutation R710W (receptor, UniProt O43424-1 24-1007, looked up)
chain: DSIIHIGAIFDESAKKDDEVFRTAVGDLNQNEEILQTEKITFSVTFVDGNNPFQAVQEACELMNQGILALVSSIGCTSAGSLQSLADAMHIPHLFIQRSTAGTPRSGCGLTRSNRNDDYTLSVRPPVYLHDVILRVVTEYAWQKFIIFYDSEYDIRGIQEFLDKVSQQGMDVALQKVENNINKMITTLFDTMRIEELNRYRDTLRRAILVMNPATAKSFITEVVETNLVAFDCHWIIINEEINDVDVQELVRRSIGRLTIIRQTFPVPQNISQRCFRGNHRISSTLCDPKDPFAQNMEISNLYIYDTVLLLANAFHKKLEDRKWHSMASLSCIRKNSKPWQGGRSMLETIKKGGVSGLTGELEFGENGGNPNVHFEILGTNYGEELGRGVRKLGCWNPVTGLNGSLTDKKLENNMRGVVLRVVTVLEEPFVMVSENVLGKPKKYQGFSIDVLDALSNYLGFNYEIYVAPDHKYGSPQEDGTWNGLVGELVFKRADIGISALTITPDRENVVDFTTRYMDYSVGVLLRRAEKTVDMFACLAPFDLSLWACIAGTVLLVGLLVYLLNWLNPPRLQMGSMTSTTLYNSMWFVYGSFVQQGGEVPYTTLATRMMMGAWWLFALIVISSYTANLAAFLTITRIESSIQSLQDLSKQTEIPYGTVLDSAVYEHVRMKGLNPFERDSMYSQMWWMINRSNGSENNVLESQAGIQKVKYGNYAFVWDAAVLEYVAINDPDCSFYTIGNTVADRGYGIALQHGSPYRDVFSQRILELQQNGDMDILKHKWWPKNGQCDLYSSVDTKQKGGALDIKSFAGVFCILAAGIVLSCFIAMLETWWNKRKGSRVPSKEDDKEIDLEHLHRRVNSLCTDDDSPHKQFSTSSIDLTPLDIDTLPTRQALEQISDFRNTHITTTTFIPEQIQTLSRTLSAKAASGFTFGNVPEHRTGPFRHRAPNGGFFRSPIKTMSSIPYQPTPTLGLNLGNDPDRGTSI
binding result: binds
